In paper doi:10.1101/2024.01.20.576357:

Target: SpyCatcher-VLP (virus-like particle of SpyCatcher-HBc) (Hepatitis B virus)
Test: cryo-EM structure

With “SpyCatcher-VLP (virus-like particle of SpyCatcher-HBc)” as the substance, how does the stoichiometry N (monomers per VLP) read?
The stoichiometry N (monomers per VLP) was 180.
